Results on two molecules are retold here after patent publication US20240042018A1 (University of Washington, published 2024).

The target of test [1] is T1, I53_dn5B trimer.
T1 chain: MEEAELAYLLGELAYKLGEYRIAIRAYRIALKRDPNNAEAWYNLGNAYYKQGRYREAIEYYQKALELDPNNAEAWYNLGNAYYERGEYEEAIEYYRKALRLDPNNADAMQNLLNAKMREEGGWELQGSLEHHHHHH
As to the kind of experiment: in vitro nanoparticle assembly, SEC and SDS-PAGE.

In test [2] the target is T1, I53_dn5B trimer. As to the kind of experiment: nanoparticle assembly grade, Table 3.
Another test concerns the target T2, I53_dn5B_2gly trimer (N-linked glycans at PNGS 32-YDNLT-36 and 89-NAT-91).
T2 chain: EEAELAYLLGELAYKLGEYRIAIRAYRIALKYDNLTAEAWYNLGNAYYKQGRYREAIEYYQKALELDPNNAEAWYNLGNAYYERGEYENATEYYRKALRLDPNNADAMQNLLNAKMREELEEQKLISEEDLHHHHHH
As to the kind of experiment: in vitro nanoparticle assembly, SEC and SDS-PAGE.

B1: I53_dn5A_1C5kPEG pentamer (designed binder)
chain: MGKYDGSKLRIGILHARGNAEIILALVLGALKRLQEFGVKRENIIIETVPGSFELPYGSKLFVEKQKRLGKPLDAIIPIGVLIRGSTPHFDYIADSTTHQLMKLNFELGIPVIFGVITADTCEQAEARAGLIEGKMHNHGEDWGAAAVEMATKFNGGWELQLEGSHHHHHH
In the case of B1, the binding result in the test with I53_dn5B trimer [1] is on record as “binds”.

B2: I53_dn5A_2gly pentamer (designed binder)
chain: KYDGSKLRIGILHARGNAEIILELVLGALKRLQEFGVKRENIIIETVPGSFELPYGSKLFVEKQKRLGKPLDAIIPIGVLIRGNDTHFDYIADSTTHQLMKLNFELGIPVIFGVLTTNSTEQAEERAGTKAGNHGEDWGAAAVEMATKFNLEEQKLISEEDLHHHHHH
For the molecule B2, the binding result in the test with I53_dn5B trimer [2] and in the test with I53_dn5B_2gly trimer was “binds” throughout.
